{"source": "patent US7018627", "about": "(ICOS, dated 2006)", "molecules": {"B1": {"name": "murine Leu-MDC (ligand)", "chain": "LGPYGANVEDSICCQDYIRHPLPSRLVKEFFWTSKSCRKPGVVLITVKNRDICADPRQVWVKKLLHKLS"}, "B2": {"name": "human mature Macrophage Derived Chemokine, MDC(1-69) (ligand)", "chain": "GPYGANMEDSVCCRDYVRYRLPLRVVKHFYWTSDSCPRPGVVLLTFRDKEICADPRVPWVKMILNKLSQ", "notes": "also called mature MDC; human mature MDC"}, "B3": {"name": "MDC-wvas (ligand)", "chain": "B2 chain with W59A, V60S", "notes": "Chemically synthesized analog"}, "B4": {"name": "MDC-eyfy (ligand)", "chain": "B2 chain with H28E, F29Y, Y30F, W31Y"}, "B5": {"name": "TARC (Thymus and Activation-Regulated Chemokine) (ligand)", "chain": "ARGTNVGRECCLEYFKGAIPLRKLKTWYQTSEDCSRDAIVFVTVQGRAICSDPNNKRVKNAVKYLQSLERS", "notes": "The whole entry is named here"}, "B6": {"name": "MDC (9-69) (ligand)", "chain": "DSVCCRDYVRYRLPLRVVKHFYWTSDSCPRPGVVLLTFRDKEICADPRVPWVKMILNKLSQ", "notes": "Chemically synthesized N-terminal deletion analog"}, "B7": {"name": "human C-C chemokine receptor 4 (CCR4) (receptor)", "chain": "MNPTDIADTTLDESIYSNYYLYESIPKPCTKEGIKAFGELFLPPLYSLVFVFGLLGNSVVVLVLFKYKRLRSMTDVYLLNLAISDLLFVFSLPFWGYYAADQWVFGLGLCKMISWMYLVGFYSGIFFVMLMSIDRYLAIVHAVFSLRARTLTYGVITSLATWSVAVFASLPGFLFSTCYTERNHTYCKTKYSLNSTTWKVLSSLEINILGLVIPLGIMLFCYSMIIRTLQHCKNEKKNKAVKMIFAVVVLFLGFWTPYNIVLFLETLVELEVLQDCTFERYLDYAIQATETLAFVHCCLNPIIYFFLGEKFRKYILQLFKTCRGLFVLCQYCGLLQIYSADTPSSSYTQSTMDHDLHDAL", "notes": "Expressed on stably transfected murine pre-B L1.2 cells (L1.2/CCR4, L1.2/huCCR4); also called huCCR4; MDC receptor CCR4"}}, "key": {"[1]": {"biological_target": "B7", "test": "competition with 0.1 nM 125I-labeled human MDC on L1.2/huCCR4 cells; LARC at 100 nM"}, "[2]": {"biological_target": "B7", "test": "cell-based or functional assay"}, "[3]": {"biological_target": "B7", "test": "displacement of 0.5 nM MDC-SEAP from CCR4-transfected L1.2 cells by unlabeled chemokine", "method": "(§1) The MDC-SEAP was used as a probe to examine MDC binding to CCR4-transfected L1.2 cells. For displacement and saturation experiments, transfected L1.2 cells (approx. 3×10^5) were incubated for one hour at 16° C. in the presence of 0.5 nM MDC-SEAP in the presence or absence of various concentrations of unlabeled chemokines in 200 μl binding buffer (RPMI 1640 media containing 25 mM HEPES, pH 7.4, 1% BSA, and 0.02% sodium azide). Following incubation, the cells were washed four times in binding buffer and lysed in 50 μl of 10 mM Tris-HCl, pH 8.0, and 1% Triton X-100. Samples were heated at 65° C. for 15 minutes to inactivate cellular phosphatases, centrifuged, and stored at −20° C. until assayed.\n(§2) Alkaline phosphatase activity in 10 μl of sample was determined by a chemiluminescence assay using the Great Escape Detection kit (Clontech, Palo Alto, Calif.) according to the manufacturer's instructions. […] Binding competition curves were fitted (TableCurve™) using a three-parameter logistic model described by the equation y=a/[1+(x/b)^c], where y is the amount of labelled ligand bound, a is the maximum amount of labelled ligand bound, x is the concentration of the competitive chemokine, b is the IC$50$, and c is a parameter that determines the slope of the curve at the IC$50$."}, "[4]": {"biological_target": "B7", "test": "CCR4 binding assay on L1.2/CCR4 cells, essentially as in Example 25"}, "MDC-SEAP fusion protein": {"biological_target": "T1, MDC-SEAP fusion protein (human, UniProt P05187 23-506)", "T1 construct": "mature; Expressed from pcDNA3 in COS cells and used as filtered culture supernatant; also called synthetic MDC-SEAP", "test": "saturation binding of MDC-SEAP to CCR4-transfected L1.2 cells, Scatchard analysis", "method": "as §1, §2"}}, "note": "Changes are numbered by the printed parent chain."}
{"molecule": "chemokine LARC (from UniProt P78556 27-96) (ligand)", "values": [{"measurement": "cpm of labeled MDC bound in the presence of the competitor", "setting": "[1]", "result": 3800, "unit": "cpm"}]}
{"molecule": "B1", "values": [{"measurement": "chemotaxis of L1.2/huCCR4 cells: response relative to full-length murine MDC", "setting": "[2]", "result": "~20", "unit": "% lower"}]}
{"molecule": "B2", "values": [{"measurement": "IC50", "setting": "[3]", "result": 0.65, "unit": "nM"}, {"measurement": "fold higher affinity than TARC", "setting": "[3]", "result": "> 3", "unit": "fold"}]}
{"molecule": "B3", "values": [{"measurement": "fold less affinity than MDC", "setting": "[4]", "result": "~500", "unit": "fold"}]}
{"molecule": "B4", "values": [{"measurement": "binding result", "setting": "[4]", "result": "binds"}]}
{"molecule": "B5", "values": [{"measurement": "IC50", "setting": "[3]", "result": 2.1, "unit": "nM"}]}
{"molecule": "B6", "values": [{"measurement": "binding result", "setting": "[4]", "result": "binds"}]}
{"molecule": "B7", "values": [{"measurement": "Kd", "setting": "MDC-SEAP fusion protein", "result": 0.18, "unit": "nM"}]}
